Legend:
[1] = target: CCR5 chemokine receptor (human) (UniProt P51681); assay: flow cytometry on cells
[2] = target: CCR5 chemokine receptor (human) (UniProt P51681); assay: plasmonic metal-enhanced fluorescence imaging of cells

Chain of UniProt P51681 (P51681 whole entry): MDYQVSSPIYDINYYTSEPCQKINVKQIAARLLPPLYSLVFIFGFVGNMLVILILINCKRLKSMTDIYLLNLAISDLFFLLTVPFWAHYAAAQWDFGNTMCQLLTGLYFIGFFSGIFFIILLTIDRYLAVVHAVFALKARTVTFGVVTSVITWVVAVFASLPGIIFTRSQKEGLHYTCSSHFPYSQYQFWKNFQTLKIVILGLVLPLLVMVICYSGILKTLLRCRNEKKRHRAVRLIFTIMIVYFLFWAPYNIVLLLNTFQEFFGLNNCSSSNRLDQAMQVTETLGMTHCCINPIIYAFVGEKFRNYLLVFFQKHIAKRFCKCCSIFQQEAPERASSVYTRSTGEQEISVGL

full length single chain (FLSC) IgG1 (Fc fusion)
reduction in CCR5 intensity (staining by mAb 45531) after FLSC IgG1 [1]: 10% | fold increase of CCR5 binding on MVC-treated against untreated cells [2]: 1.65 fold

Source: paper PMC6776994
